Experimental findings from patent EP3670537A1 are described below.

The test deals with Claudin 18 splice variant 2 (CLDN18.2) (human). In words: cell-based or functional assay.

Turning to IMAB362 (antibody), the in vitro EC50 concentration, CDC on CLDN18.2-transfected CHO-K1 cells is 0.5 mg/L; the in vitro EC80-100, total cytotoxicity assay on NUGC-4 cells with healthy donor PBMCs (E:T 40:1) and 25% serum is 200 mg/L; the lysis rate, CDC on CLDN18.2-transfected CHO-K1 cells, pooled sera from healthy controls with 0.5 µg/ml IMAB362 came out at 64.5%; the lysis rate, CDC on CLDN18.2-transfected CHO-K1 cells, pre-infusion serum of patient 0204 with 0.5 µg/ml fresh IMAB362 was found to be 93.9%. The specific killing of NUGC-4 cells by IMAB362 in patient serum 28-32 days after administration, all dose groups was greater than 48%.
